The data set “SEC” concerns the molecule itself. Kind of data set: SEC. On the technique in general: SEC sorts molecules by how far they enter the pores of the column.
The data set “crystal structure” deals with the molecule itself. Kind of data set: crystal structure.
Data set [1] addresses T1, FGL-1 Fibrinogen-like domain (FD), dimer, C-terminal Avi-tag, biotinylated (human), Q08830.
T1 chain: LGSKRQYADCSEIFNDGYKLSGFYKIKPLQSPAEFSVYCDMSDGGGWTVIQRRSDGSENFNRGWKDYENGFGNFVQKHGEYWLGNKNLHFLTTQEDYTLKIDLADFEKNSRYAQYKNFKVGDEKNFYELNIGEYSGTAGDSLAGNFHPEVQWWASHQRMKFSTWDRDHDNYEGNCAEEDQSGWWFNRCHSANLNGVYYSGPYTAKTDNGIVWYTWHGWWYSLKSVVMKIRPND
Nature of the data set: BLI. In general terms: In BLI a coated tip is dipped into the sample, and binding shifts an interference pattern.

For data set [2], the target named is T2, FGL-1 Fibrinogen-like domain (FD), monomer, C-terminal Avi-tag, biotinylated (human), Q08830.
T2 chain: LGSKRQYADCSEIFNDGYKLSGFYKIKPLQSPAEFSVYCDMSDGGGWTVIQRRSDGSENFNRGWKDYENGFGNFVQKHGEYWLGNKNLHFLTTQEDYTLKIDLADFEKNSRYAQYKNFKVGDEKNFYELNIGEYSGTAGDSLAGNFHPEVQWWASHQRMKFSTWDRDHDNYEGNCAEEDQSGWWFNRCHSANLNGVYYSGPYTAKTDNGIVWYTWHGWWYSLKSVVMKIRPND
Kind of data set: BLI.

B1: FGL-1 Fibrinogen-like domain (FD), dimer, C-terminal Avi-tag, biotinylated (domain or fragment, human, UniProt Q08830 74-306, looked up)
chain: LGSKRQYADCSEIFNDGYKLSGFYKIKPLQSPAEFSVYCDMSDGGGWTVIQRRSDGSENFNRGWKDYENGFGNFVQKHGEYWLGNKNLHFLTTQEDYTLKIDLADFEKNSRYAQYKNFKVGDEKNFYELNIGEYSGTAGDSLAGNFHPEVQWWASHQRMKFSTWDRDHDNYEGNCAEEDQSGWWFNRCHSANLNGVYYSGPYTAKTDNGIVWYTWHGWWYSLKSVVMKIRPND
modifications: biotin on the Avi-tag (BirA)
By stoichiometry N is commonly meant a count of units in the complex or per binding partner. In the case of B1, the “stoichiometry N” value in “SEC” is 2.

B2: FGL-1 FD dimer (without Avi-tag) (domain or fragment, human, UniProt Q08830 74-306, looked up)
chain: LGSKRQYADCSEIFNDGYKLSGFYKIKPLQSPAEFSVYCDMSDGGGWTVIQRRSDGSENFNRGWKDYENGFGNFVQKHGEYWLGNKNLHFLTTQEDYTLKIDLADFEKNSRYAQYKNFKVGDEKNFYELNIGEYSGTAGDSLAGNFHPEVQWWASHQRMKFSTWDRDHDNYEGNCAEEDQSGWWFNRCHSANLNGVYYSGPYTAKTDNGIVWYTWHGWWYSLKSVVMKIRPND
Take B2: the binding result in the data set “crystal structure” is “binds”.

B3: LAG-3 (soluble analyte in BLI), P18627 23-450 (receptor)
chain: LQPGAEVPVVWAQEGAPAQLPCSPTIPLQDLSLLRRAGVTWQHQPDSGPPAAAPGHPLAPGPHPAAPSSWGPRPRRYTVLSVGPGGLRSGRLPLQPRVQLDERGRQRGDFSLWLRPARRADAGEYRAAVHLRDRALSCRLRLRLGQASMTASPPGSLRASDWVILNCSFSRPDRPASVHWFRNRGQGRVPVRESPHHHLAESFLFLPQVSPMDSGPWGCILTYRDGFNVSIMYNLTVLGLEPPTPLTVYAGAGSRVGLPCRLPAGVGTRSFLTAKWTPPGGGPDLLVTGDNGDFTLRLEDVSQAQAGTYTCHIHLQEQQLNATVTLAIITVTPKSFGSPGSLGKLLCEVTPVSGQERFVWSSLDTPSQRSFSGPWLEAQEAQLLSQPWQCQLYQGERLLGAAVYFTELSSPGAQRSGRAPGALPAGHL
modifications: not checked
The term Kd denotes the free concentration of one partner at which half of the binding sites on the other are occupied at equilibrium, for simple one-to-one binding. A high value points to a looser complex. As for B3, the Kd in data set [1] came to 16.8 nM; in data set [2], 740 nM.

The values above are taken from article doi:10.1101/2025.08.05.668721 (bioRxiv, 2025).
